Each block holds one binder with its values, some of them ahead of it. Starred links: 1 amine or outer side, 2 acyl side, 3 side chain; linkers in the order of their positions; H or OH if unused. Non-standard residues stand in square brackets, D forms with d. Groups on a side chain read outwards from the residue. No end group written: not given here. *: point of attachment. Carnitine = carnitine group on the Lys side chain, C[N+](C)(C)C[C@H](O)CC(=O)*; Ala(1H-tetrazol-5-yl) = N[C@@H](Cc1nnn[nH]1)C(=O)O; Dip = N[C@H](C(=O)O)C(c1ccccc1)c1ccccc1; γGlu = O=C(O)[C@H](CCC(=O)[*:2])N[*:1]; His(τ-Me) = Cn1cnc(C[C@H](N)C(=O)O)c1; NH(4-phenylbutyl) = c1ccc(CCCCN*)cc1; Palmitoyl = CCCCCCCCCCCCCCCC(=O)*; β3hF = N[C@H](CC(=O)O)Cc1ccccc1; NMeK = CN[C@@H](CCCCN)C(=O)O; Isovaleryl = CC(C)CC(=O)*; Ahx = NCCCCCC(=O)O
Columns and labels:
Test in all cases: cell-based or functional assay
[1] = biological target: T1, human ferroportin (SLC40A1) fused in frame with GFP, stably expressed in HEK293 cells (human, UniProt Q9NP59 1-571)
T1 sequence (looked up): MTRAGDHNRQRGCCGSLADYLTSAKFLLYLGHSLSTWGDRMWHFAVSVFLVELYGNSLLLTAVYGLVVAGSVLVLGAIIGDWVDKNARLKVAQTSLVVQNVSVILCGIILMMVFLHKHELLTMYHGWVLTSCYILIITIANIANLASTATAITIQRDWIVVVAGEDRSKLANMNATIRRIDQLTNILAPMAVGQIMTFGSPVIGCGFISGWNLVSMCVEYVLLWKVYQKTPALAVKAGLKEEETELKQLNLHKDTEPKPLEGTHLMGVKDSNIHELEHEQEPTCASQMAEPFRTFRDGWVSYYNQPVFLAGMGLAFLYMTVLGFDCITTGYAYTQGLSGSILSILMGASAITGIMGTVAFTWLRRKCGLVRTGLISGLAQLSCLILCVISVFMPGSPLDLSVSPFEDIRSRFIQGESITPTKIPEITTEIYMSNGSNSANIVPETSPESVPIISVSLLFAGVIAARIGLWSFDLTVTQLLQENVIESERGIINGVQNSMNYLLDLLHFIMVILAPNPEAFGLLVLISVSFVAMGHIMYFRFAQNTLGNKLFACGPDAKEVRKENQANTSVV

[2] = biological target: T1, human ferroportin (SLC40A1) fused in …; remark: listed apart in the source
[3] = biological target: T2, ferroportin endogenously expressed on T47D cells (HTB 133, ATCC) (human, UniProt Q9NP59 1-571)
T2 sequence (looked up): T1 sequence (looked up)

[4] = biological target: T1, human ferroportin (SLC40A1) fused in …; remark: listed apart in the source

Binder: DiIsoAmylAmine_CH2_Acid-TH[Dip]PAIK([Ahx-Palmitoyl])[β3hF][dK]-NH2 [[DiIsoAmylAmine_CH2_Acid]-T-H-[Dpa]-P-A-I-[Lys(Ahx_Palm)]-[bhPhe]-[(D)Lys]-NH2]
FPN EC50 [2]: 25.9 nM | T47D MSA IC50 [3]: 52.9 nM

B2: Isovaleric Acid-E-T-H-[Dpa]-A-A-I-[(D)Lys]-[bhPhe]-[Lys(Ahx_Palm)]-[(D)Lys]-A-NH2 (peptide)
peptide: Isovaleryl-ETH[Dip]AAI[dK][β3hF]K([Ahx-Palmitoyl])[dK]A-NH2
SMILES: CCCCCCCCCCCCCCCC(=O)NCCCCCC(=O)NCCCC[C@H](NC(=O)C[C@H](Cc1ccccc1)NC(=O)[C@@H](CCCCN)NC(=O)[C@@H](NC(=O)[C@H](C)NC(=O)[C@H](C)NC(=O)[C@@H](NC(=O)[C@H](Cc1c[nH]cn1)NC(=O)[C@@H](NC(=O)[C@H](CCC(=O)O)NC(=O)CC(C)C)[C@@H](C)O)C(c1ccccc1)c1ccccc1)[C@@H](C)CC)C(=O)N[C@H](CCCCN)C(=O)N[C@@H](C)C(N)=O
FPN IC50 [4]: 183 nM

Binder: Isovaleryl-KTH[Dip]PAIK([Ahx-Palmitoyl])[β3hF] [Isovaleric Acid-K-T-H-[Dpa]-P-A-I-[Lys(Ahx_Palm)]-[bhPhe]]
FPN IC50 [4]: 126 nM

Binder: Isovaleryl-ETH[Dip]PAIK(Ac)[β3hF]-NH2 [Isovaleric Acid-E-T-H-[Dpa]-P-A-I-[Lys(Ac)]-[bhPhe]-NH2]
FPN EC50 [2]: 175 nM | T47D MSA IC50 [3]: 355 nM

B3: Isovaleric Acid-E-T-H-[Dpa]-P-A-I-[(D)Lys]-[bhPhe]-[Lys(Ahx_Palm)]-[(D)Lys]-A-NH2 (peptide)
peptide: Isovaleryl-ETH[Dip]PAI[dK][β3hF]K([Ahx-Palmitoyl])[dK]A-NH2
SMILES: CCCCCCCCCCCCCCCC(=O)NCCCCCC(=O)NCCCC[C@H](NC(=O)C[C@H](Cc1ccccc1)NC(=O)[C@@H](CCCCN)NC(=O)[C@@H](NC(=O)[C@H](C)NC(=O)[C@@H]1CCCN1C(=O)[C@@H](NC(=O)[C@H](Cc1c[nH]cn1)NC(=O)[C@@H](NC(=O)[C@H](CCC(=O)O)NC(=O)CC(C)C)[C@@H](C)O)C(c1ccccc1)c1ccccc1)[C@@H](C)CC)C(=O)N[C@H](CCCCN)C(=O)N[C@@H](C)C(N)=O
FPN EC50 [2]: 17.8 nM | T47D MSA IC50 [3]: 5.97 nM

B5: Isovaleric Acid-K-T-H-[Dpa]-P-A-I-E-[bhPhe]-[Lys(Ahx_Palm)]-R-NH2; (K and E cyclized) (peptide)
peptide: XKTHXPAIEXXR
modifications: N-term Isovaleric Acid; Dpa4; bhPhe9; Lys(Ahx_Palm)10; C-term NH2; K and E cyclized (lactam)
FPN EC50 [2]: 13.8 nM | T47D MSA IC50 [3]: 1.74 nM

Continued, values first:

IC50: FPN internalisation [1]: 5.9 nM
B1: [Isovaleric Acid]-K-T-H-[Dpa]-P-A-[Lys(Carnitine)]-E-[N-MeLys(Ahx_Palm)]-[Phenylbutyl Amine] (peptide)
peptide: Isovaleryl-KTH[Dip]PAK(Carnitine)E[NMeK]([Ahx-Palmitoyl])-{NH(4-phenylbutyl)}
SMILES: CCCCCCCCCCCCCCCC(=O)NCCCCCC(=O)NCCCC[C@@H](C(=O)NCCCCc1ccccc1)N(C)C(=O)[C@H](CCC(=O)O)NC(=O)[C@H](CCCCNC(=O)C[C@@H](O)C[N+](C)(C)C)NC(=O)[C@H](C)NC(=O)[C@@H]1CCCN1C(=O)[C@@H](NC(=O)[C@H](Cc1c[nH]cn1)NC(=O)[C@@H](NC(=O)[C@H](CCCCN)NC(=O)CC(C)C)[C@@H](C)O)C(c1ccccc1)c1ccccc1

FPN IC50 [4]: > 3000 nM
Binder: Isovaleryl-[dK](Gal)TH[Dip]PAIK([Ahx-Palmitoyl])[β3hF]-NH2 [Isovaleric Acid-d[Lys(Gal-T-H-[Dpa]-P-A-I-[Lys(Ahx_Palm)]-[bhPhe]-NH2]

IC50: FPN internalisation [1]: 5.41 nM
Binder: XETHXPXX (N-term Isovaleric Acid; Dpa4; Lys(Ahx_Palm)6; C-term Phenylbutyl Amine) [[Isovaleric Acid]-E-T-H-[Dpa]-P-[Lys(Ahx_Palm)]-[Phenylbutyl Amine]]

FPN EC50 [2]: 23.9 nM | T47D MSA IC50 [3]: 3.94 nM
B4: Isovaleric Acid-[Tet1]-T-[(1Me)His]-[Dpa]-P-A-I-[(N-Me)Lys]-[bhPhe]-[Lys(Ahx_Palm)]-NH2 (peptide)
peptide: Isovaleryl-[Ala(1H-tetrazol-5-yl)]T[His(τ-Me)][Dip]PAI[NMeK][β3hF]K([Ahx-Palmitoyl])-NH2
SMILES: CCCCCCCCCCCCCCCC(=O)NCCCCCC(=O)NCCCC[C@H](NC(=O)C[C@H](Cc1ccccc1)NC(=O)[C@H](CCCCN)N(C)C(=O)[C@@H](NC(=O)[C@H](C)NC(=O)[C@@H]1CCCN1C(=O)[C@@H](NC(=O)[C@H](Cc1cn(C)cn1)NC(=O)[C@@H](NC(=O)[C@H](Cc1nnn[nH]1)NC(=O)CC(C)C)[C@@H](C)O)C(c1ccccc1)c1ccccc1)[C@@H](C)CC)C(N)=O

FPN IC50 [4]: 76 nM
Binder: Isovaleryl-K(Gal)TH[Dip]PAIK([Ahx-Palmitoyl])[β3hF]-NH2 [Isovaleric Acid-[Lys(Gal)]-T-H-[Dpa]-P-A-I-[Lys(Ahx_Palm)]-[bhPhe]-NH2]

FPN IC50 [4]: 246 nM
Binder: Isovaleryl-ETH[Dip]P[dK](Gal)IK([Ahx-Palmitoyl])[β3hF]-NH2 [Isovaleric Acid-E-T-H-[Dpa]-P-d[Lys(Gal)]-I-[Lys(Ahx_Palm)]-[bhPhe]-NH2]

FPN EC50 [2]: 280 nM | T47D MSA IC50 [3]: 289 nM
Binder: Isovaleryl-ETHFPAIK([γGlu-Palmitoyl])FEPRSKGAK-NH2 [Isovaleric Acid-E-T-H-F-P-A-I-[Lys(IsoGlu_Palm)]-F-E-P-R-S-K-G-A-K-NH2]
